Earlier results as cited in paper PMC12411175.

Target: insulin receptor (Homo sapiens) (UniProt P06213)
UniProt P06213, sequence (P06213 763-1382): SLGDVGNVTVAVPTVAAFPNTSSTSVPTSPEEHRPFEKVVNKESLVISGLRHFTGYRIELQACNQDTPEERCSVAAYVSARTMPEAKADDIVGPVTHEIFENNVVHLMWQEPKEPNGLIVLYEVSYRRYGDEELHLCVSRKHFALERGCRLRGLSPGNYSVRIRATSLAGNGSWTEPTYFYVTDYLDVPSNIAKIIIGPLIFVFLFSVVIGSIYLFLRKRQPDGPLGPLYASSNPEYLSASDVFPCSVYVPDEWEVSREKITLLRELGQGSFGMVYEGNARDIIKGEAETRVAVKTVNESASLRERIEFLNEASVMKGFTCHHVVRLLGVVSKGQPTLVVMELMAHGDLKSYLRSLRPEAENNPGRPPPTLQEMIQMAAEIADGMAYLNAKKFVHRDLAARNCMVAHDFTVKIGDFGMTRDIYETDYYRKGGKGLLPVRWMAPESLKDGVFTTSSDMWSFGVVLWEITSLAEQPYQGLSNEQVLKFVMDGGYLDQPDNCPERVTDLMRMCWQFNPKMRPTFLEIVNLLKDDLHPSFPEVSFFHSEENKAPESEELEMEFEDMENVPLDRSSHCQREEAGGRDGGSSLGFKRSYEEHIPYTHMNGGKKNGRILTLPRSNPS

insulin, sequence (P01308 90-110): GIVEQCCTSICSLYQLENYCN

Kd: 0.02 nM
Substance: insulin (from UniProt P01308)
